These results are taken from patent US20230227537A1 (VIB VZW, published 2023).

Assay [1] has as its target Mouse IgG1 Fc fused SARS-CoV-2 RBD (Sino Biological) (SARS-CoV-2; mouse, UniProt P0DTC2 330-518). As to the kind of experiment: BLI, immobilized RBD-mFc. In general terms: BLI is a label-free optical method that tracks binding on a fibre tip over time.
In assay [2] the target is SARS-CoV-2 spike, full length, on cells or on pseudotyped/authentic virus (SARS-CoV-2, UniProt P0DTC2 14-1273). As to the kind of experiment: cell-based or functional assay.

B1: D72-55: VHH72_h1_E1D_S56A-(G4S)3-VHH72_h3_S56A-GS-hIgG1hinge_EPKSCdel-hIgG1Fc_LALAPG_Kdel (Fc fusion)
chain: DVQLVESGGGLVQPGGSLRLSCAASGRTFSEYAMGWFRQAPGKEREFVATISWSGGATYYTDSVKGRFTISRDNAKNTVYLQMNSLRPEDTAVYYCAAAGLGTVVSEWDYDYDYWGQGTLVTVSSGGGGSGGGGSGGGGSDVQLVESGGGLVQPGGSLRLSCAASGRTFSEYAMGWFRQAPGKEREFVATISWSGGATYYTDSVKGRFTISRDNAKNTVYLQMNSLRPEDTAVYYCAAAGLGTVVSEWDYDYDYWGQGTLVTVSSGSDKTHTCPPCPAPEAAGGPSVFLFPPKPKDTLMISRTPEVTCVVVDVSHEDPEVKFNWYVDGVEVHNAKTKPREEQYNSTYRVVSVLTVLHQDWLNGKEYKCKVSNKALGAPIEKTISKAKGQPREPQVYTLPPSRDELTKNQVSLTCLVKGFYPSDIAVEWESNGQPENNYKTTPPVLDSDGSFFLYSKLTVDKSRWQQGNVFSCSVMHEALHNHYTQKSLSLSPG
notes: Tetravalent; ExpiCHO
For B1, the “fold higher affinity than its bivalent counterpart” value in assay [1] is greater than 100 fold. Also, in assay [2], the “PRNT50, authentic SARS-CoV-2” value was 0.02 µg/mL and the “fold lower PRNT50 than the parental construct” value stood at 50 fold.
